# Laboratory results reported in patent publication US20200317802A1.
# Assays:
# [1] = biological target: activated human MMP-14 (human) (UniProt P50281)
# [2] = biological target: activated human MMP-1 (human) (UniProt P03956)
# Chain of activated human MMP-1 (human) (P03956 100-469 limits assumed): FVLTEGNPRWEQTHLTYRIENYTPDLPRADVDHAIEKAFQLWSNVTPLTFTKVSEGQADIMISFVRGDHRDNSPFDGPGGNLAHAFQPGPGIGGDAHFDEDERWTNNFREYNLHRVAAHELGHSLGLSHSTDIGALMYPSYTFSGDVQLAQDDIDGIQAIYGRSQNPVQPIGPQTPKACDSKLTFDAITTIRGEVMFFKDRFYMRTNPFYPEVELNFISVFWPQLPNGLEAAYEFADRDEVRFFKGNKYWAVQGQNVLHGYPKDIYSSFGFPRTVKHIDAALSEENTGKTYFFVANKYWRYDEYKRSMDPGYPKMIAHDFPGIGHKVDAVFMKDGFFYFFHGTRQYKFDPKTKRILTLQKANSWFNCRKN
substance,measurement,setting,value
TIMP2 (from UniProt P16035 27-220),"IC50 (read off the curve) (human MMP-14 activity, FRET peptide substrate)",[1],6 nM
same,"IC50 (read off the curve) (human MMP-1 activity, FRET peptide substrate)",[2],0.9 nM
